For assay [1], the target named is specific IgE bound to the surface of human basophils from birch pollen allergic patients. The experiment in a line: cell-based or functional assay.
Assay [2] addresses serum IgE from a pool of birch allergic patients. The experiment in a line: fluid-phase IgE-inhibition assay; competes with biotinylated Bet v 1.2801 for pooled serum IgE.
Assay [3] shares this target. The experiment in a line: fluid-phase IgE-inhibition assay; competes with biotinylated Bet v 1 no. 2801 for pooled serum IgE.

Substitutions are numbered along the chain they refer to.

B1: Mutant Bet v 1 (2628) (protein)
chain: GVFNVETETTSVIPAARLFKAFILDGDNLFPKVAPQAISSVENISGNGGPGTIKKISFPEGFPFNYVKDRVDEVDHTNFKYNYSVIEGGPIGDTLESISNEIKIVATPDGGSILKISNKYHTKGDHEVKAEQVEASKEMGETLLRAVESYLLAHSDAYN
Regarding B1, in assay [1], the histamine release in human basophil: reduction of potency against Bet v 1.2801 lay within 3 to 10 fold. The same molecule yielded a factor by which the affinity is lowered against Bet v 1.2801 in assay [2] of 3 to 4 fold.

B2: Bet v 1 (Asn28Thr, Lys32Gln, Glu45Ser, Pro108Gly) mutant (protein)
chain: B1 chain with V5Y, N28T, K32Q, N65K, S97K, P108G, E134K
On to B2, for which, in assay [3], the amount to reach 80% inhibition turned out to be 400 ng, the factor of decrease against recombinant Bet v 1 (at 80% inhibition) turned out to be 20 fold and the factor of decrease in affinity against recombinant Bet v 1 (at 50% inhibition) stood at 5 fold.

The values are drawn from patent US20040043438A1.
